Experimental data as given in the supplement of paper PMC9732359.
± gives the uncertainty stated by the source.

Test: protein stability index of a GFP-peptide fusion (yeast GPS) (PSI 1-4); higher = more stable; sorted into four equal gates, so the index is relative within each strain
Conditions: doa10∆
In short: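 Tiled 17-residue yeast protein peptides were fused downstream of GFP in a plasmid that also expresses Cherry, and the pooled library was carried in yeast. Mid-log cultures in leucine-free medium were sorted into four equal gates by GFP/Cherry fluorescence ratio, and plasmids from each gate were PCR-amplified and Illumina-sequenced, with reads assigned to strains by barcodes. The protein stability index for each peptide was each gate's read frequency times its gate number, summed.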

Sequence	protein stability index
TTTKIIDSTDHIRKASS [LRP1]	2.19 ± 0.048
TTTSNTSGTNIAGTFNV [YOR098C/NUP1]	3 ± 0.05
TTTTTTTNNNNTNNNNT [SWI1]	3.18 ± 0.034
TVAHIQYDFKAVLEEND [RPN14]	1.95 ± 0.12
TVALREIRRFQKSTELL [HHT1]	2.99 ± 0.098
TVKLTEIVWTSSLIKAG [RPO31]	1.48 ± 0.058
TVLVIDNSEYSRNGDFP [RPN10]	2.44 ± 0.058
TVNEPQMSDKHATVVPP [SRB7]	2.73 ± 0.12
TVPNLPTTMVTNQKDTN [ISW2]	1.29 ± 0.046
TVQSWLCDLFVNGSITD [NUT1]	1.46 ± 0.038
TVSPDFVAATTNAGYTI [FAS1]	2.71 ± 0.065
TVSPTQDKDAIRKQPDD [SIR2]	2.99 ± 0.076
TWENEFLDSQRVWAEYA [PRP8]	2.14 ± 0.088
TWNGSPFDNSTEEKCKN [YJL039C/NUP192]	3.1 ± 0.084
TWYVGNSRGKFDDACNQ [SSN2]	3.43 ± 0.19
TYGFSILDIVINNPVNL [FAS1]	2.07 ± 0.087
TYIKSEITQQEKGLNEL [SMC4]	1.88 ± 0.066
TYRSRAQQVPPYGVYHP [SIN4]	2.77 ± 0.1
VAAAGITASTLLYADSL [CYT1]	1.89 ± 0.068
VAAFVNNYPNVELTYSL [BRR2]	2.61 ± 0.11
VAALKAVGAHSDLLKVL [RPL4A]	3.21 ± 0.093
VAALRFTAGARAKIVKA [RPL18A]	1.31 ± 0.089
VAASIIPFPDHNQSPRN [RPB2]	2.37 ± 0.09
VADEEANIELTWAEGTF [RPC37]	2.06 ± 0.067
VAEIEKTADVKRQYVKQ [RPL20A]	3.33 ± 0.13
VAIDQDKITLHDEKTLA [SIR4]	2.01 ± 0.097

Sequence	protein stability index
VAMCFVINKLDRLILDL [SNU114]	2.23 ± 0.055
VARIPRVGGGGTGRSGQ [RPL4A]	3.46 ± 0.15
VASADYESQTFSSKNEW [PRP8]	2.83 ± 0.098
VASLSKRNKLLTIFDSV [YJL039C/NUP192]	1.98 ± 0.059
VATEPLLDILVKGETRI [PRP8]	2.43 ± 0.057
VCIRPSVMMQDSPASNE [RPO31]	1.63 ± 0.085
VDAITRCYQPFELFDNK [SNU114]	3 ± 0.073
VDFEKFETFLVDVNNKF [SIN4]	3.23 ± 0.07
VDIQIINQYQLLYNLKN [SWI1]	1.68 ± 0.031
VDKNGAHLYMLEPSGSY [PRE10]	2.04 ± 0.057
VDNDNWVYKTKGDGMTS [RPN1]	3.12 ± 0.1
VDNIVNKYQYSLKQYAG [SRP68]	3.09 ± 0.084
VDNVTLESYKTQAKKLY [SRP72]	3.02 ± 0.11
VDPFDSDEEESVLDEQE [SNU114]	3.36 ± 0.095
VDQEMLYEIILAANYLN [SKP1]	1.63 ± 0.051
VDSRNETDHKTNENGET [SRB4]	3.26 ± 0.16
VDSWDREFLKVDQEMLY [SKP1]	3.43 ± 0.12
VDTSTELESMLEDLKNT [RRP6]	3.56 ± 0.24
VEEKPGDRGALARASGN [RPL2A]	2.95 ± 0.12
VEELPTFHDYDMVKLDI [RRP42]	2.51 ± 0.055
VEFKLPKELVPSHEKLK [CDC53]	2.37 ± 0.054
VEITFGKEFGDVSVKMG [RRP45]	1.38 ± 0.073
VEKTEKPKKPKGRAYKR [RPS30A]	3.16 ± 0.098
VEMAWIMGFISYHNGNL [FAS2]	2.67 ± 0.14
VEPVTERTKLQEHTIFT [SNU114]	2.2 ± 0.2
VEQTAEVTIEDALKVVL [RPS12]	3.34 ± 0.079

Sequence	protein stability index
VETNTTVLADEFIAHRL [RPB3]	3.05 ± 0.058
VEVDITLSPNVTDSSLL [GRR1]	2.83 ± 0.074
VFALHKYKPTPLYVMDE [SMC4]	2.6 ± 0.081
VFEISENNSDSNSNNNG [SWI1]	2.89 ± 0.15
VFERFKTKILEVAIRDV [IRR1]	1.77 ± 0.081
VFESLEINNLIQLPASL [ARP9]	1.61 ± 0.08
VFLEFSLNFIPITASTS [YML103C/NUP188]	1.27 ± 0.068
VFLYFEDNAGVIANPKG [RPL23A]	2.43 ± 0.11
VFSHAQTAVTCESCSTV [RPS27B]	1.57 ± 0.13
VFYAPNVKNYSTTQEIL [RPC34]	2.4 ± 0.1
VFYRGMTMQVAVPRDEL [FAS1]	1.62 ± 0.056
VGFLVQLDLTGIFLHGK [PRP8]	2.17 ± 0.074
VGGTTSISGFKEALLGQ [ARP9]	2.67 ± 0.087
VGRLWDQTFPINCNKET [ECM29]	3.03 ± 0.14
VGSENVECTISILRKSS [SNF12]	1.89 ± 0.042
VHLSNGYKMIPGAKPLQ [FAS1]	1.74 ± 0.072
VHPRKSYKMNSSAADIT [PRP8]	2.77 ± 0.079
VHVIHFQHADNSSMRYG [AAR2]	2.73 ± 0.081
VIDTLAAGYGKILGKGR [RPL28]	3.09 ± 0.12
VIEEDYDDEQNTSAQHV [IRR1]	3.5 ± 0.097
VIFDASIKDTQNVGQGK [BRN1]	2.15 ± 0.14
VIIKGFKTYRNETIIDN [SMC3]	2.58 ± 0.22
VIKLAKYPDYFPEWKKS [ARP9]	3 ± 0.098
VIPSYSKWFNLEKIHSI [SWI3]	1.69 ± 0.045
VISFGQPKLNPMASSSS [SWI1]	2.15 ± 0.06
VISIVGGHSLEEISFSL [PRP28]	2.82 ± 0.13

Sequence	protein stability index
VISNLVPKLESSRTKFW [YJL039C/NUP192]	2.36 ± 0.26
VIVPQIVLDEVRNKSYP [DIS3]	2.68 ± 0.066
VKAILMQRHVKVDGKVR [RPS4A]	3.13 ± 0.15
VKESNNYYSNKSNSTGN [REC8]	2.44 ± 0.067
VKEYQLRDRNFSATGNF [RPL11A]	3.29 ± 0.097
VKIMRDPAKSRTGPKAL [RPS3]	3.35 ± 0.21
VKKPTFTFGQSTSENKI [YOR098C/NUP1]	3.02 ± 0.21
VKLWEEDPDQEECSGRR [YGL100W/SEH1]	3.18 ± 0.084
VKSKIQDKEGIPPDQQR [RPS31]	3.08 ± 0.076
VKTTLVSLTQLRCVKYL [RPC82]	1.4 ± 0.13
VKVHMDSETSDPNEVEI [DIS3]	3.29 ± 0.089
VLDSYTPSTNEPYARVS [FAS1]	2.94 ± 0.054
VLEYLAAEILELAGNAA [HTA1]	2.85 ± 0.1
VLISKLSCEKITHYAVR [RRI1]	1.45 ± 0.046
VLKACGILSDLEIMQLV [RET1]	1.56 ± 0.11
VLKEKDVPAYNVTSFMP [SRB8]	3.11 ± 0.064
VLPNTALKTSIQHVGMI [FAS1]	2.95 ± 0.12
VLRINKMLSCAGADRLQ [RPL10]	1.1 ± 0.092
VLRIPEEYLDANVFRLE [MTW1]	3.34 ± 0.1
VLSPDSNIMSDSKKIKV [GAL11]	2.03 ± 0.13
VLSTFTAEFGKILAGLH [RPN10]	3.11 ± 0.14
VMRNEIRITSLQGDLTF [SIR4]	2.8 ± 0.073
VNAPLPTPFKVDDNVDF [RPN2]	2.91 ± 0.077
VNDSVISAPSMEDEILS [BRN1]	2.05 ± 0.1

Same assay, conditions: pdr5∆

Sequence	protein stability index
TTTKIIDSTDHIRKASS [LRP1]	2.07 ± 0.039
